Starred links: 1 amine or outer side, 2 acyl side, 3 side chain; linkers in the order of their positions; H or OH if unused. Non-standard residues stand in square brackets, D forms with d. Groups on a side chain read outwards from the residue. No end group written: not given here. *: point of attachment. C20 diacid = O=C(O)CCCCCCCCCCCCCCCCCCC(=O)*; γGlu = O=C(O)[C@H](CCC(=O)[*:2])N[*:1]; αMeL = CC(C)C[C@](C)(N)C(=O)O; AEEA = NCCOCCOCC(=O)O; Aib = CC(C)(N)C(=O)O
T1: human GIP receptor (human) (UniProt P48546)
T1 sequence (looked up): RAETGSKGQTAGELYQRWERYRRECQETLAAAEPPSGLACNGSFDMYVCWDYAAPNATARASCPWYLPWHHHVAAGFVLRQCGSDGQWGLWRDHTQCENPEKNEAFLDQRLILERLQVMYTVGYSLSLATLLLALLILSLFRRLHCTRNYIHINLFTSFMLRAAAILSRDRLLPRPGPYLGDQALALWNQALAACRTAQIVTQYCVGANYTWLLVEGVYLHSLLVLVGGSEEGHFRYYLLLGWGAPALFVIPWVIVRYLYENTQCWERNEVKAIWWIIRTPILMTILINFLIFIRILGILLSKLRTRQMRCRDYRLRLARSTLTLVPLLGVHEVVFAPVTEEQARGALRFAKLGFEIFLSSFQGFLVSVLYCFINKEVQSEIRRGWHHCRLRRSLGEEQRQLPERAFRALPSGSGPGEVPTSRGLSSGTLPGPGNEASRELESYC

B1: Example 26 (peptide)
chain: YXQGTFTSDFSKXLDKKAQXQFIEYLLAGGPSSGEPPPSEG
modifications: Lys acylated; Aib, αMeL; C-terminal amide; synthetic construct; SITE 2: note = 2-Aminoisobutyric Acid; SITE 13: note = alpha-methyl-leucine; SITE 17: note = Lysine is chemically modified through conjugation of the epsilon-amino group of the Lysine side chain with (2-[2-(2-Amino-ethoxy)-ethoxy]-acetyl)-(gamma-Glu)-CO-(CH2) 16-CO2H; SITE 20: n
B2: Example 93 (peptide)
chain: YXQGTFTSDFSXXLDKKAQXAFIEYLLAGGPSSGAPPPEGS
modifications: synthetic construct; SITE 2: note = 2-Aminoisobutyric Acid; SITE 12: note = L-ornithine; SITE 13: note = alpha-methyl-leucine; SITE 17: note = Lysine is chemically modified through conjugation of the epsilon-amino group of the Lysine side chain with (2-[2-(2-Amino-ethoxy)-ethoxy]-acetyl)-(gamma-Glu)
B3: Example 23 (peptide)
chain: YXQGTFTSDFSKXLDKKAQXAFIEYLLAGGPSSGEPPPSGE
modifications: Aib, αMeL, acylated K, C-terminal amide; synthetic construct; SITE 2: note = 2-Aminoisobutyric Acid; SITE 13: note = alpha-methyl-leucine; SITE 17: note = Lysine is chemically modified through conjugation of the epsilon-amino group of the Lysine side chain with (2-[2-(2-Amino-ethoxy)-ethoxy]-acetyl)-(gamma-Glu)-CO-(CH2) 16-CO2H; SITE 20: n
B4: Example 22 (peptide)
chain: YXQGTFTSDFSKXLDKKAQXAFIEYLLAGGPSSGEPPPSEG
modifications: Aib, αMeL; acyl on Lys; C-terminal amide; synthetic construct; SITE 2: note = 2-Aminoisobutyric Acid; SITE 13: note = alpha-methyl-leucine; SITE 17: note = Lysine is chemically modified through conjugation of the epsilon-amino group of the Lysine side chain with (2-[2-(2-Amino-ethoxy)-ethoxy]-acetyl)-(gamma-Glu)-CO-(CH2) 16-CO2H; SITE 20: n
B5: Example 97 (peptide)
chain: YXQGTFTSDFSXXLDKKAQXAFIEYLLAGGPSSGEPPPSGE
modifications: synthetic construct; SITE 2: note = 2-Aminoisobutyric Acid; SITE 12: note = L-ornithine; SITE 13: note = alpha-methyl-leucine; SITE 17: note = Lysine is chemically modified through conjugation of the epsilon-amino group of the Lysine side chain with (2-[2-(2-Amino-ethoxy)-ethoxy]-acetyl)-(gamma-Glu)
B6: Example 12 (peptide)
chain: YXQGTFTSDFSKXLDKKAQXAFIEYLLAGGPSSGAPPPSGG
modifications: Aib, αMeL; acylated Lys; C-terminal amide; synthetic construct; SITE 2: note = 2-Aminoisobutyric Acid; SITE 13: note = alpha-methyl-leucine; SITE 17: note = Lysine is chemically modified through conjugation of the epsilon-amino group of the Lysine side chain with (2-[2-(2-Amino-ethoxy)-ethoxy]-acetyl)-(gamma-Glu)-CO-(CH2) 18-CO2H; SITE 20: n
B7: Example 21 (peptide)
chain: YXQGTFTSDFSKXLDKKAQXAFIEWLLAGGPSSGEPPPSGE
modifications: Aib, αMeL; acylated Lys; C-term amide; synthetic construct; SITE 2: note = 2-Aminoisobutyric Acid; SITE 13: note = alpha-methyl-leucine; SITE 17: note = Lysine is chemically modified through conjugation of the epsilon-amino group of the Lysine side chain with (2-[2-(2-Amino-ethoxy)-ethoxy]-acetyl)-(gamma-Glu)-CO-(CH2) 18-CO2H; SITE 20: n
B8: Example 16 (peptide)
chain: YXQGTFTSDFSKXLDKKAQXAFIEYLLAGGPSSGAPPPGGS
modifications: Aib, αMeL; acylated Lys; C-terminal amide; synthetic construct; SITE 2: note = 2-Aminoisobutyric Acid; SITE 13: note = alpha-methyl-leucine; SITE 17: note = Lysine is chemically modified through conjugation of the epsilon-amino group of the Lysine side chain with (2-[2-(2-Amino-ethoxy)-ethoxy]-acetyl)-(gamma-Glu)-CO-(CH2) 18-CO2H; SITE 20: n
B9: Example 24 (peptide)
chain: YXQGTFTSDFSKXLDKKAQXAFIEYLLAGAPSSGAPPPSEG
modifications: Aib, αMeL; acylated lysine; C-terminal amide; synthetic construct; SITE 2: note = 2-Aminoisobutyric Acid; SITE 13: note = alpha-methyl-leucine; SITE 17: note = Lysine is chemically modified through conjugation of the epsilon-amino group of the Lysine side chain with (2-[2-(2-Amino-ethoxy)-ethoxy]-acetyl)-(gamma-Glu)-CO-(CH2) 18-CO2H; SITE 20: n

Key:
Experiment in all cases: cell-based or functional assay
[1] = biological target: T1, human GIP receptor (human)
[2] = biological target: human glucagon receptor (human) (UniProt P47871)
Sequence of human glucagon receptor (human) (P47871 26-477): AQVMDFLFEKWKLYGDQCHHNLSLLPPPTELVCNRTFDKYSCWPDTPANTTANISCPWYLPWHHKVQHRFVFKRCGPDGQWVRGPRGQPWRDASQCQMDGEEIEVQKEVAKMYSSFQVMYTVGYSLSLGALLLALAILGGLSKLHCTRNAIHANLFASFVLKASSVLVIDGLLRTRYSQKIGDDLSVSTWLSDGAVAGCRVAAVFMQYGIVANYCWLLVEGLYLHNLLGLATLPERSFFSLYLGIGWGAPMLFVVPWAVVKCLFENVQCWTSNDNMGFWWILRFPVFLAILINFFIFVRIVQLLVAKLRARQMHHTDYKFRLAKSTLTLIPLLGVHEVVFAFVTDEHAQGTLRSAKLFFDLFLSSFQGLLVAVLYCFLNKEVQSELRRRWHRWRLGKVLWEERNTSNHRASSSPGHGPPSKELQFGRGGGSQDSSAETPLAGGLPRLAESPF

[3] = biological target: human GLP1-R (SNAP-GLP-1R expressed in HEK293 cells) (human) (UniProt P43220)
Sequence of human GLP1-R (SNAP-GLP-1R expressed in HEK293 cells) (human) (P43220 24-463): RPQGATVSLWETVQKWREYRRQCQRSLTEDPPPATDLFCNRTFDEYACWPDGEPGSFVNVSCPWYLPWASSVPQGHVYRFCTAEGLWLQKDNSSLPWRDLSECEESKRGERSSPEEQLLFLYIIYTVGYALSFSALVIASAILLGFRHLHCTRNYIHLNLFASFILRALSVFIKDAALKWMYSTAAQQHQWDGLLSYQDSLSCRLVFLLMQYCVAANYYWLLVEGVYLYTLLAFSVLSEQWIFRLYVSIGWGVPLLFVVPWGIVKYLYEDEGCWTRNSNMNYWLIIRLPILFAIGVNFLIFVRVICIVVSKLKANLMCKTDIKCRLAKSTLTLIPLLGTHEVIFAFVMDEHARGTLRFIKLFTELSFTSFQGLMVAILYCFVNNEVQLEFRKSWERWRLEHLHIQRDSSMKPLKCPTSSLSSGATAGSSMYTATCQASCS

hGLP-1R = hGLP-1R (Homo sapiens, UniProt P43220)
Sequence of hGLP-1R (P43220 24-463): as above

Binder | Relative cAMP EC50 [1] [µM] | cAMP Rel EC50 (in the presence of 1% HSA) [1] [µM] | Relative cAMP EC50 [2] [µM] | cAMP Rel EC50 (in the presence of 1% HSA) [2] [µM] | GLP1R Internalization EC50 [3] [µM] | Internalization % TOP [3] [%] | Relative cAMP EC50 (hGLP-1R) [µM] | cAMP Rel EC50 (in the presence of 1% HSA) (hGLP-1R) [µM] | cAMP Rel EC50, nM (in the presence of 1% HSA) [1] [nM] | cAMP Rel EC50, nM (in the presence of 1% HSA) [2] [nM] | cAMP Rel EC50, nM (in the presence of 1% HSA) (hGLP-1R) [nM]
B1 | 0.0002 | 0.0354 | 0.00482 | 0.98 | 0.0961 | 75.6 | 0.00344 | 0.623 |  |  | 
Y[Aib]QGTFTSDFSK[αMeL]LDKK([AEEA-γGlu-C20 diacid])AQQAFIEYLLA[Aib]GPSSGEPPPSEG-NH2 [Example 19] | 0.000228 | 0.0662 | 0.00235 | 1.01 | 0.0524 | 72.6 | 0.00396 | 1.31 |  |  | 
B2 | 0.000162 |  | 0.00716 |  | 0.0304 | 50.8 | 0.00263 |  | 27.9 | 1390 | 397
B3 | 0.000178 | 0.0255 | 0.00513 | 0.573 | 0.0515 | 67.2 | 0.00298 | 0.308 |  |  | 
B4 | 0.000246 | 0.081 | 0.00542 | 0.532 | 0.0419 | 64.7 | 0.00294 | 0.592 |  |  | 
B5 | 0.000176 |  | 0.00673 |  | 0.0519 | 50.7 | 0.00323 |  | 23.9 | 1270 | 605
B6 | 0.00017 | 0.0302 | 0.0122 | 1.49 | 0.0485 | 75.3 | 0.00146 | 0.216 |  |  | 
B7 | 0.000218 | 0.0291 | 0.0124 | 1.51 | 0.0876 | 72.5 | 0.0027 | 0.324 |  |  | 
B8 | 0.000217 | 0.0359 | 0.00884 | 1.66 | 0.0378 | 74.6 | 0.00154 | 0.281 |  |  | 
B9 | 0.000308 | 0.102 | 0.00966 | 1.39 | 0.0799 | 71.9 | 0.00309 | 0.447 |  |  | 
